According to patent US20220226463A1 (NATIONAL CHENG KUNG UNIVERSITY, published 2022):

Molecular target: T1, TRAF6 (UniProt Q9Y4K3 1-522)
T1 sequence: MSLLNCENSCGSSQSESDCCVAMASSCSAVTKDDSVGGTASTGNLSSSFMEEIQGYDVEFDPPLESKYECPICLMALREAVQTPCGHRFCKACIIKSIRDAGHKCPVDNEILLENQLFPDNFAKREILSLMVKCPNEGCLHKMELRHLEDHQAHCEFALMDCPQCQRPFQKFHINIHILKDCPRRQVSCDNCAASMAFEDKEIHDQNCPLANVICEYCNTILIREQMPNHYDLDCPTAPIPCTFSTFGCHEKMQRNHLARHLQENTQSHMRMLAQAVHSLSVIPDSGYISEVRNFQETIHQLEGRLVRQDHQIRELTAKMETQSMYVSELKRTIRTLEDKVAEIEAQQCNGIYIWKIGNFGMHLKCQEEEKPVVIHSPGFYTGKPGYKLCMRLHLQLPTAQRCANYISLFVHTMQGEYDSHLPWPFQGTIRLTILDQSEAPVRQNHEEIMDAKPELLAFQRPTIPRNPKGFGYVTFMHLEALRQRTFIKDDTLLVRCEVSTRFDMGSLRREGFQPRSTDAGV
Test: co-immunoprecipitation and western blot, HEK293T cells (FIG. 3A)

B1: wild-type NS1 (NS1-Myc/His), nonstructural protein 1 of influenza virus strain A/PR/8 (PR8), C-terminal Myc-His tag (other)
chain: MDPNTVSSFQVDCFLWHVRKRVADQELGDAPFLDRLRRDQKSLRGRGSTLGLDIETATRAGKQIVERILKEESDEALKMTMASVPASRYLTDMTLEEMSRDWSMLIPKQKVAGPLCIRMDQAIMDKNIILKANFSVIFDRLETLILLRAFTEEGAIVGEISPLPSLPGHTAEDVKNAVGVLIGGLEWNDNTVRVSETLQRFAWRSSNENGRPPLTPKQKREMAGTIRSEV
**Q.** Does B1 bind?
**A.** Result: no binding
